Patent publication US20240216513A1, “FATTY ACID-BIFUNCTIONAL DEGRADER CONJUGATES AND THEIR METHODS OF USE” (Novartis AG, priority 2021, published 2024)

How the values were obtained:
[1] = BTK FAC plasma stability assay, PBS buffer arm; format: physicochemical; details: for Plasma stability (h) PBS: incubation to 24 h
Protocol: (§1) Plasma stability was conducted in Dulbecco's PBS buffer, mouse plasma, rat plasma or human plasma frozen with K3-EDTA from BiolVT). Thawed plasma was centrifuged prior to warming for 5 minutes at 37° C. Working solutions were prepared from 10 mM DMSO solution to 500 µM in acetonitrile:water (1:1); 2 µL of working solution was added to 198 µL blank plasma or PBS and mixed manually. 4×45 µL of spiked matrix was aliquoted into glass incubation plates (96-well DW glass microplate) and sealed with blue silicon/PTFE seal; then incubated on a Thermo shaker (38° C. 300 RPM). Samples were prepared at 0, 2, 6 and 24 h timepoints, by protein precipitation with chilled acetonitrile containing internal standard Glyburide (0.2 µM). Precipitated samples were shaken for 10 minutes and stored at 4° C. until completion of the study. Following precipitation of the terminal sample, samples were frozen at −80° C. for 1 hour. Samples were then thawed prior to centrifugation (20 minutes, 4500 RPM at 4° C.). 50 µL of supernatant of each sample was transferred to 384 well analysis plate containing 30 µL of water. Semi quantitative analysis (analyte: internal standard peak area ratio) was performed by LC-MS/MS using a Sciex QTrap 5500.

[2] = BTK FAC plasma stability assay, mouse plasma; format: in vitro ADME; details: for Plasma stability (h) mouse / half-life at 5 µM: incubation to 24 h
Protocol: as §1

[3] = BTK FAC plasma stability assay, rat plasma; format: in vitro ADME; details: for Plasma stability (h) rat / half-life at 5 µM: incubation to 24 h
Protocol: as §1

[4] = BTK FAC plasma stability assay, dog plasma; format: in vitro ADME; details: for half-life at 5 µM: read-out: Plasma stability (h) dog (converted)

Q: What does the source list for `CCCCCCCCCCCN(C(=O)CCCCCCCCCC(=O)O)C(CCC(=O)NCCOCCOCCOCCOCCOCCOCCOCCOCCOCCOCCOCCOCCC(=O)N1CCC(F)(C(=O)OC(C)(C)c2ccc(C(=O)Nc3cc(F)cc(-c4ncnc5[nH]c(-c6ccc(CCN7CCC8(CC7)CCN(C(=O)c7ccc(OC)c(N9CCC(=O)NC9=O)c7)CC8)cc6)cc45)c3C)c(F)c2)CC1)C(=O)O` (centres unmarked) [Example A15, 44-Carboxy-1-(4-(((2-(4-((3-(6-(4-(2-(9-(3-(2,4-dioxotetrahydropyrimidin-1(2H)-yl)-4-methoxybenzoyl)-3,9-diazaspiro[5.5]undecan-3-yl)ethyl)phenyl)-7H-pyrrolo[2,3-d]pyrimidin-4-yl)-5-fluoro-2-methylphenyl)carbamoyl)-3-fluorophenyl)propan-2-yl)oxy)carbonyl)-4-fluoropiperidin-1-yl)-1,41,46-trioxo-45-undecyl-4,7,10,13,16,19,22,25,28,31,34,37-dodecaoxa-40,45-diazahexapentacontan-56-oic acid]?
A: % Release of degrader after 24 h PBS [1]: 0%; Plasma stability (h) PBS [1]: >48 h; % Release of degrader after 24 h mouse [2]: 96.9%; Plasma stability (h) mouse [2]: <2 h; % Release of degrader after 24 h rat [3]: 39.4%; Plasma stability (h) rat [3]: 30 h; Plasma stability (h) dog [4]: 23 h; % Release of degrader after 24 h dog [4]: 22.5%

Q: Which “% Release of degrader after 24 h PBS” value [1] does the source give for `CCCCCCCCCCCN(C(=O)CCCCCCCCCC(=O)O)[C@@H](CCC(=O)N(CCNC(=O)CCOCCOCCOCCOCCOCCOCCOCCOCCOCCOCCOCCOC)CC(=O)OC(C)(C)c1ccc(C(=O)Nc2cc(F)cc(-c3ncnc4[nH]c(-c5ccc(CCN6CCC7(CC6)CCN(C(=O)c6ccc(OC)c(N8CCC(=O)NC8=O)c6)CC7)cc5)cc34)c2C)c(F)c1)C(=O)O` [Example A37, (S)-46-Carboxy-42-(2-((2-(4-((3-(6-(4-(2-(9-(3-(2,4-dioxotetrahydropyrimidin-1(2H)-yl)-4-methoxybenzoyl)-3,9-diazaspiro[5.5]undecan-3-yl)ethyl)phenyl)-7H-pyrrolo[2,3-d]pyrimidin-4-yl)-5-fluoro-2-methylphenyl)carbamoyl)-3-fluorophenyl)propan-2-yl)oxy)-2-oxoethyl)-38,43,48-trioxo-47-undecyl-2,5,8,11,14,17,20,23,26,29,32,35-dodecaoxa-39,42,47-triazaoctapentacontan-58-oic acid] here?
A: 1.7%

Q: What about the “Plasma stability (h) PBS” value [1] of the same molecule?
A: >48 h

Q: And the “% Release of degrader after 24 h mouse” value [2]?
A: 2.1%

Q: And the half-life at 5 µM [2]?
A: > 48 h

Q: What about the “% Release of degrader after 24 h rat” value [3] of the same molecule?
A: 1.5%

Q: And the half-life at 5 µM [3]?
A: > 48 h

Q: And the “% Release of degrader after 24 h dog” value [4]?
A: 2.2%

Q: And the half-life at 5 µM [4]?
A: 44.7 h

Q: For `CCCCCCCCCCCN(C(=O)CCCCCCCCCC(=O)O)C(CCC(=O)NCCOCCOCCOCCOCCOCCOCCOCCOCCC(=O)NCC(=O)OC(C)(C)c1ccc(C(=O)Nc2cc(F)cc(-c3ncnc4[nH]c(-c5ccc(CCN6CCC7(CC6)CCN(C(=O)c6ccc(OC)c(N8CCC(=O)NC8=O)c6)CC7)cc5)cc34)c2C)c(F)c1)C(=O)O` (centres unmarked) [Example A8, 38-Carboxy-2-(4-((3-(6-(4-(2-(9-(3-(2,4-dioxotetrahydropyrimidin-(2H)-yl)-4-methoxybenzoyl)-3,9-diazaspiro[5.5]undecan-3-yl)ethyl)phenyl)-7H-pyrrolo[2,3-d]pyrimidin-4-yl)-5-fluoro-2-methylphenyl)carbamoyl)-3-fluorophenyl)-2-methyl-4,7,35,40-tetraoxo-39-undecyl-3,10,13,16,19,22,25,28,31-nonaoxa-6,34,39-triazapentacontan-50-oic acid], which “% Release of degrader after 24 h PBS” value [1] is on record?
A: 2.8%

Q: What about the “Plasma stability (h) PBS” value [1] of the same molecule?
A: >48 h

Q: What about the “% Release of degrader after 24 h mouse” value [2] of the same molecule?
A: 20.1%

Q: And the “Plasma stability (h) mouse” value [2]?
A: >48 h

Q: And the “% Release of degrader after 24 h rat” value [3]?
A: 18.1%

Q: What about the “Plasma stability (h) rat” value [3] of the same molecule?
A: >48 h

Q: What about the “Plasma stability (h) dog” value [4] of the same molecule?
A: >48 h

Q: And the “% Release of degrader after 24 h dog” value [4]?
A: 13.1%

Q: With `CCCCCCCCCCCN(C(=O)CCCCCCCCCC(=O)O)[C@@H](CCC(=O)NCC(=O)O[C@H]1CN(C(=O)Nc2cc(F)cc(-c3ncnc4[nH]c(-c5ccc(CCN6CCC7(CC6)CCN(C(=O)c6ccc(OC)c(N8CCC(=O)NC8=O)c6)CC7)cc5)cc34)c2C)C[C@@H]1CC(C)C)C(=O)O` [Example A31, 11-(((S)-1-Carboxy-4-((2-(((3R,4S)-1-((3-(6-(4-(2-(9-(3-(2,4-dioxotetrahydropyrimidin-1(2H)-yl)-4-methoxybenzoyl)-3,9-diazaspiro[5.5]undecan-3-yl)ethyl)phenyl)-7H-pyrrolo[2,3-d]pyrimidin-4-yl)-5-fluoro-2-methylphenyl)carbamoyl)-4-isobutylpyrrolidin-3-yl)oxy)-2-oxoethyl)amino)-4-oxobutyl)(undecyl)amino)-11-oxoundecanoic acid] as the molecule, how does the “Plasma stability (h) PBS” value [1] read?
A: >72 h

Q: What about the half-life at 5 µM [2] of the same molecule?
A: < 1 h

Q: What about the half-life at 5 µM [3] of the same molecule?
A: 1.2 h

Q: What about the half-life at 5 µM [4] of the same molecule?
A: 33.6 h

Q: What does the source list for `CCCCCCCCCCCN(C(=O)CCCCCCCCCC(=O)O)C(CCC(=O)NCCOCCOCCOCCOCCC(=O)NCC(=O)O[C@H]1CN(C(=O)Nc2cc(F)cc(-c3ncnc4[nH]c(-c5ccc(CCN6CCC7(CC6)CCN(C(=O)c6ccc(OC)c(N8CCC(=O)NC8=O)c6)CC7)cc5)cc34)c2C)C[C@@H]1CC(C)C)C(=O)O` (stereo partly drawn) [Example A30, 23-Carboxy-1-(((3R,4S)-1-((3-(6-(4-(2-(9-(3-(2,4-dioxotetrahydropyrimidin-1(2H)-yl)-4-methoxybenzoyl)-3,9-diazaspiro[5.5]undecan-3-yl)ethyl)phenyl)-7H-pyrrolo[2,3-d]pyrimidin-4-yl)-5-fluoro-2-methylphenyl)carbamoyl)-4-isobutylpyrrolidin-3-yl)oxy)-1,4,20,25-tetraoxo-24-undecyl-7,10,13,16-tetraoxa-3,19,24-triazapentatriacontan-35-oic acid]?
A: Plasma stability (h) PBS [1]: >72 h; Plasma stability (h) mouse [2]: <1 h

Q: What does the source list for `CCCCCCCCCCCN(C(=O)CCCCCCCCCC(=O)O)[C@H](CCC(=O)NCCOCCOCCOCCOCCOCCOCCOCCOCCOCCOCCOCCOCCC(=O)NCC(=O)OC(C)(C)c1ccc(C(=O)Nc2cc(F)cc(-c3ncnc4[nH]c(-c5ccc(CCN6CCC7(CC6)CCN(C(=O)c6ccc(OC)c(N8CCC(=O)NC8=O)c6)CC7)cc5)cc34)c2C)c(F)c1)C(=O)O` [Example A3, (R)-50-Carboxy-2-(4-((3-(6-(4-(2-(9-(3-(2,4-dioxotetrahydropyrimidin-1(2H)-yl)-4-methoxybenzoyl)-3,9-diazaspiro[5.5]undecan-3-yl)ethyl)phenyl)-7H-pyrrolo[2,3-d]pyrimidin-4-yl)-5-fluoro-2-methylphenyl)carbamoyl)-3-fluorophenyl)-2-methyl-4,7,47,52-tetraoxo-51-undecyl-3,10,13,16,19,22,25,28,31,34,37,40,43-tridecaoxa-6,46,51-triazadohexacontan-62-oic acid]?
A: % Release of degrader after 24 h PBS [1]: 1.9%; Plasma stability (h) PBS [1]: >48 h; % Release of degrader after 24 h mouse [2]: 5.2%; Plasma stability (h) mouse [2]: >48 h; % Release of degrader after 24 h rat [3]: 9%; Plasma stability (h) rat [3]: >48 h; Plasma stability (h) dog [4]: 44.4 h; % Release of degrader after 24 h dog [4]: 9.7%

Q: Which “% Release of degrader after 24 h PBS” value [1] does the source give for `CCCCCCCCCCCN(C(=O)CCCCCCCCCC(=O)O)C(CCC(=O)NCCOCCOCCOCCOCCC(=O)NCC(=O)OC(C)(C)c1ccc(C(=O)Nc2cc(F)cc(-c3ncnc4[nH]c(-c5ccc(CCN6CCC7(CC6)CCN(C(=O)c6ccc(OC)c(N8CCC(=O)NC8=O)c6)CC7)cc5)cc34)c2C)c(F)c1)C(=O)O` (centres unmarked) [Example A7, 26-Carboxy-2-(4-((3-(6-(4-(2-(9-(3-(2,4-dioxotetrahydropyrimidin-(2H)-yl)-4-methoxybenzoyl)-3,9-diazaspiro[5.5]undecan-3-yl)ethyl)phenyl)-7H-pyrrolo[2,3-d]pyrimidin-4-yl)-5-fluoro-2-methylphenyl)carbamoyl)-3-fluorophenyl)-2-methyl-4,7,23,28-tetraoxo-27-undecyl-3,10,13,16,19-pentaoxa-6,22,27-triazaoctatriacontan-38-oicacid] here?
A: 1.5%

Q: What about the “Plasma stability (h) PBS” value [1] of the same molecule?
A: >48 h

Q: And the “% Release of degrader after 24 h mouse” value [2]?
A: 53.6%

Q: And the “Plasma stability (h) mouse” value [2]?
A: 10.1 h

Q: What does the source list for `CCCCCCCCCCCN(C(=O)CCCCCCCCCC(=O)O)C(CCC(=O)NCCOCCOCCOCCOCCOCCOCCOCCOCCOCCOCCOCCOCCC(=O)NCCOP(=O)(O)OC(C)(C)c1ccc(C(=O)Nc2cc(F)cc(-c3ncnc4[nH]c(-c5ccc(CCN6CCC7(CC6)CCN(C(=O)c6ccc(OC)c(N8CCC(=O)NC8=O)c6)CC7)cc5)cc34)c2C)c(F)c1)C(=O)O` (centres unmarked) [Example A39, 47-Carboxy-1-((((2-(4-((3-(6-(4-(2-(9-(3-(2,4-dioxotetrahydropyrimidin-1(2H)-yl)-4-methoxybenzoyl)-3,9-diazaspiro[5.5]undecan-3-yl)ethyl)phenyl)-7H-pyrrolo[2,3-d]pyrimidin-4-yl)-5-fluoro-2-methylphenyl)carbamoyl)-3-fluorophenyl)propan-2-yl)oxy)(hydroxy)phosphoryl)oxy)-4,44,49-trioxo-48-undecyl-7,10,13,16,19,22,25,28,31,34,37,40-dodecaoxa-3,43,48-triazanonapentacontan-59-oic acid]?
A: % Release of degrader after 24 h PBS [1]: 0%; Plasma stability (h) PBS [1]: >48 h; % Release of degrader after 24 h mouse [2]: 0%; Plasma stability (h) mouse [2]: >48 h; % Release of degrader after 24 h rat [3]: 0%; Plasma stability (h) rat [3]: >48 h; Plasma stability (h) dog [4]: 39.0 h; % Release of degrader after 24 h dog [4]: 0%
